Experimental data as given in patent US20260232827A1 (Zymeworks, published 2026).

Columns and labels:
[1] = target: T1, Construct 6 (NaPi2b del 317-333) (human, UniProt O95436 1-690); assay: flow cytometry, HEK293-6e cells transfected with Construct 6
T1 construct: Deletion construct on HEK293-6e cells; also called CL_#29919
T1 sequence: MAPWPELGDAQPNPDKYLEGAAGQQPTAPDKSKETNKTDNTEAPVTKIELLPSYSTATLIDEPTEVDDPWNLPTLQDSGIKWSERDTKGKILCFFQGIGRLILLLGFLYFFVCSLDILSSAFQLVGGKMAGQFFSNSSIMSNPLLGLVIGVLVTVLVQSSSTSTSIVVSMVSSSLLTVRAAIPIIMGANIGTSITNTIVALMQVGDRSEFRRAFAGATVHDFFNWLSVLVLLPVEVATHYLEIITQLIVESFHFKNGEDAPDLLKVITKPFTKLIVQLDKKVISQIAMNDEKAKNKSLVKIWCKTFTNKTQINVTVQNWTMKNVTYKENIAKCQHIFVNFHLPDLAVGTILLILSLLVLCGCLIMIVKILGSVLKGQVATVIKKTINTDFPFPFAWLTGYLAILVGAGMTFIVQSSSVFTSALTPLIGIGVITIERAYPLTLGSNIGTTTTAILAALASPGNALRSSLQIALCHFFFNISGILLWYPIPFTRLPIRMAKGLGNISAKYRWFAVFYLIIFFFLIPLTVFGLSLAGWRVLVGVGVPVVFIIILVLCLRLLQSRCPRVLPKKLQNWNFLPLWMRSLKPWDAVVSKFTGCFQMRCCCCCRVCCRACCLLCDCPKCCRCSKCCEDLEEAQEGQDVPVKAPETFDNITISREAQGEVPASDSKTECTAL
Description: (§1) Following transfection, cells were seeded at 50,000 cells/well in conical-bottom 96-well plates and treated with a serial dilution of test antibody for 24 hours at 4° C. to prevent internalization. Cells were treated with final concentrations of all humanized antibodies of 200, 20, or 2 nM. Cells were treated with final concentrations of the reference anti-NaPi2a rabbit antibody of 50, 5, or 0.5 nM. […] Following incubation and washing, fluorescence was detected by flow cytometry on a BD LSRFortessa™ Cell Analyzer (BD Biosciences, Franklin Lake, NJ) with 1,000 minimum events collected per well. […] Background-subtracted AF647 Mean Fluorescence Intensity (MFI) values were calculated by subtracting the average MFI of three technical replicates of unstained (no primary antibody) cells.

[2] = target: T2, Construct 7 (NaPi2b del 317-326) (human, UniProt O95436 1-690); assay: flow cytometry, HEK293-6e cells transfected with Construct 7
T2 construct: Deletion construct on HEK293-6e cells; also called CL_#29921
T2 sequence: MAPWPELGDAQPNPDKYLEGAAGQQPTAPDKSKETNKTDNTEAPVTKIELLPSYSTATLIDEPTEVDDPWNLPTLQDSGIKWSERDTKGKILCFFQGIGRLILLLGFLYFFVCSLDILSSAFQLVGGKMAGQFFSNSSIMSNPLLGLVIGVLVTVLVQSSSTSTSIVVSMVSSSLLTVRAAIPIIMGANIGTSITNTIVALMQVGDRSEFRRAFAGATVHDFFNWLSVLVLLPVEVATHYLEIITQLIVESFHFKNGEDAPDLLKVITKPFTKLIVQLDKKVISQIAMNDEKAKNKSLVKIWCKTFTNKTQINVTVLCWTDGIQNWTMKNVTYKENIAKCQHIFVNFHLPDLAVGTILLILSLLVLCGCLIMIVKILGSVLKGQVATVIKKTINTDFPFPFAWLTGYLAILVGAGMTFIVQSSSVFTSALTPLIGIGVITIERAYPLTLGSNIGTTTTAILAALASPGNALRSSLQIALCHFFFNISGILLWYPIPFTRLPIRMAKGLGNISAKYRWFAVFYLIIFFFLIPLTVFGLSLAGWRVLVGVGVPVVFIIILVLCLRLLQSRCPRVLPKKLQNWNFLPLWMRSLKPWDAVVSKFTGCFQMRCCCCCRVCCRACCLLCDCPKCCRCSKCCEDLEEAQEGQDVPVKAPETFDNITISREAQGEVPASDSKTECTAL
Description: as §1

[3] = target: T3, human sodium-dependent phosphate transporter 2B (NaPi2b) (human, UniProt O95436 1-690); assay: flow cytometry on IGROV-1 cells (endogenous NaPi2b), 24 h at 4 C, anti-human IgG Fc AF647, APC-A GeoMean
T3 construct: UniProt ID is given as 095436 [sic]; also called hNaPi2b; Hu NaPi2b
T3 sequence: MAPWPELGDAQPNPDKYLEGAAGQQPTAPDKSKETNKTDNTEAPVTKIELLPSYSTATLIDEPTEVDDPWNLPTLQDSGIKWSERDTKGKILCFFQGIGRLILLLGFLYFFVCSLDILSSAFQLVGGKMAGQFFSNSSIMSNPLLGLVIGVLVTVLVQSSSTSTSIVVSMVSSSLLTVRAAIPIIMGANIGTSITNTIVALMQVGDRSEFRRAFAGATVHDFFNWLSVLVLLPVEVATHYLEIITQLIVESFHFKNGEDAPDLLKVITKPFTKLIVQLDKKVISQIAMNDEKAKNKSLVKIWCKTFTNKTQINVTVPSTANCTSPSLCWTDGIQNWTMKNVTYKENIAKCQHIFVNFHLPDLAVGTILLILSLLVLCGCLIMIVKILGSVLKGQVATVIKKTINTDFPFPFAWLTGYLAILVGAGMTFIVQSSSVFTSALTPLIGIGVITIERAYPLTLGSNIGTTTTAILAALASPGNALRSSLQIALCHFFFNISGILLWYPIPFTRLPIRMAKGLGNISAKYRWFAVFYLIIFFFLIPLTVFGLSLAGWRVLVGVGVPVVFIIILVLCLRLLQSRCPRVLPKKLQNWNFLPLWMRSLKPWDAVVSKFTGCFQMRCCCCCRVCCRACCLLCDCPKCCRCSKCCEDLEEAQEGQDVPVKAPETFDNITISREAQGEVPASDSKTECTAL
Description: Cells were maintained under standard culture conditions (37° C./5% CO₂) until assay set-up. […] Cells were removed from culture vessels using Cell Dissociation Buffer (Invitrogen, Waltham, MA), seeded at 50,000 cells/well in conical-bottom 96-well plates, and treated with test antibody or antibody-drug conjugate for 24 hours at 4° C. to prevent internalization. […] Following incubation and washing, fluorescence was detected by flow cytometry on a BD LSRFortessa™ Cell Analyzer (BD Biosciences, Franklin Lake, NJ) with 1,000 minimum events collected per well.

[4] = target: T4, KLH (Sigma-Aldrich, H8283); assay: non-specific ELISA, KLH coated, antibody 100 nM
T4 construct: Coating of the non-specific ELISA
Description: NS-ELISA was used to measure the propensity of the antibodies to bind to a range of biomolecules to emulate the undesirable non-specific interactions to biological matrices in vivo as described below.
NS-ELISA was carried out in Corning® 96-well EIA/RIA Easy Wash™ Clear Flat Bottom Polystyrene High Bind Microplate coated overnight at 4° C. with 50 μL of Heparin (Sigma, H3149) diluted with 50 mM sodium carbonate pH 9.6 to a final concentration of 250 μg/mL. The plate was incubated for 2 days at room temperature, wells that were coated with heparin were not covered to allow air dry. […] 50 μL each of insulin, KLH, dsDNA and ssDNA were added to a 96 well plate, followed by the incubation at 37° C. for 2 h. The coating materials were removed, and the plate was blocked with 200 μL of Gibco™ PBS pH7.4, 0.1% Tween®20, and incubated for 1 h at room temperature with shaking at 200 rpm. The plate was washed 3 times with Gibco™ PBS pH7.4, 0.1% Tween 20. 50 μL of each mAb at 100 nM (15 mg/mL) in Gibco™ PBS pH 7.4, 0.1% Tween®20 was added in duplicate to the wells and incubated for 1 h at room temperature with shaking at 200 rpm. […] Plates were incubated for 1 h at room temperature, with shaking at 200 rpm. The plate was washed three times with Gibco™ PBS pH7.4, 0.1% Tween 20, and 100 μL of TMB substrate (Cell Signaling Technology©, 7004P6) added to each well. […] Binding scores were calculated as the ratio of the ELISA signal of the antibody to the signal of a well containing buffer instead of the primary antibody.

[5] = target: T3, human sodium-dependent phosphate …; assay: flow cytometry, IGROV-1 cells (endogenous NaPi2b); set-up: unit not given here
[6] = target: T3, human sodium-dependent phosphate …; assay: flow cytometry, HEK293-6e cells transfected with human NaPi2b
Description: (§2) Briefly, HEK293-6e cells were transfected for ~24 hours to transiently express human NaPi2b, cynomolgus or mouse NaPi2b, at 1 μg of DNA per 1 million cells. Following transfection, 50,000 cells per well were seeded in V-bottom 96-well plates and incubated with 200 nM of primary antibody for 18-24 hours at 4° C. to prevent internalization. […] Following staining and washing, fluorescence was detected by flow cytometry on BD LSRFortessa™ Cell Analyzer (BD Biosciences, Franklin Lake, NJ) with 10,000 minimum events collected per well. The AF647/APC-A GeoMean (fluorescence signal geometric mean, proportional to anti-Human AF647 binding) was calculated for the live singlet cell population for each primary antibody using FlowJo™ v8 software (BD Biosciences, Franklin Lake, NJ). The Bmax and Kd of each primary antibody were calculated using GraphPad Prism Version 9 (GraphPad Software, San Diego, CA)

[7] = target: T3, human sodium-dependent phosphate …; assay: flow cytometry, IGROV-1 cells (endogenous NaPi2b); apparent Kd
Description: Briefly, cells were seeded at 50,000 cells/well in conical-bottom 96-well plates and treated with test antibody for 24 hours at 4° C. to prevent internalization. […] Following incubation and washing, fluorescence was detected by flow cytometry on a BD LSRFortessa™ Cell Analyzer (BD Biosciences, Franklin Lake, NJ) with 1,000 minimum events collected per well.

cynomolgus monkey NaPi2b [8] = target: T5, cynomolgus monkey NaPi2b (cynomolgus monkey, UniProt O95436 1-690 (human entry)); assay: flow cytometry, HEK293-6e cells transfected with cynomolgus NaPi2b
T5 construct: also called Cyno NaPi2b; Cy NaPi2b
T5 chain: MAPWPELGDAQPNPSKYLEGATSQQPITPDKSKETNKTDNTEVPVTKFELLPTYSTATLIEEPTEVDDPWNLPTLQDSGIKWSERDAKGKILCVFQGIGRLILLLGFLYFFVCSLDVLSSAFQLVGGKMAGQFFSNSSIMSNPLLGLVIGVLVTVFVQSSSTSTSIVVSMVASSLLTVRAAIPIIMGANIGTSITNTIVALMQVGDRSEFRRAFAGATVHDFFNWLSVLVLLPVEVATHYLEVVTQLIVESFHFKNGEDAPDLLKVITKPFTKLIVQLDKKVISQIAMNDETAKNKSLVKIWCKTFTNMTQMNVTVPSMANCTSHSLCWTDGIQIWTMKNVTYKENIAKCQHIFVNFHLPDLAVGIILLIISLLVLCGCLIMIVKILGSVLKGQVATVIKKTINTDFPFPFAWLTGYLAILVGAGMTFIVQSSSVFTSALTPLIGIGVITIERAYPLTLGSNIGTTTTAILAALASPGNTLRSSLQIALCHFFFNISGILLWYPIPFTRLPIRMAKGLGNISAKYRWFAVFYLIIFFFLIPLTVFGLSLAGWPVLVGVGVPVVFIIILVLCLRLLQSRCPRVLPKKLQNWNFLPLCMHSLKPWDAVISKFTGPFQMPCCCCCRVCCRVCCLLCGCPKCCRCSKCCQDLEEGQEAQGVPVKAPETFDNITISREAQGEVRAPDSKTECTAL
Description: as §2

[9] = target: T3, human sodium-dependent phosphate …; assay: flow cytometry, HEK293-6e cells transfected with human NaPi2b; apparent Kd
Description: as §2

mouse NaPi2b = target: T6, mouse NaPi2b (mouse, UniProt Q9DBP0 1-697); assay: flow cytometry, HEK293-6e cells transfected with mouse NaPi2b; apparent Kd
T6 construct: also called Ms NaPi2b; CL #13476
T6 sequence: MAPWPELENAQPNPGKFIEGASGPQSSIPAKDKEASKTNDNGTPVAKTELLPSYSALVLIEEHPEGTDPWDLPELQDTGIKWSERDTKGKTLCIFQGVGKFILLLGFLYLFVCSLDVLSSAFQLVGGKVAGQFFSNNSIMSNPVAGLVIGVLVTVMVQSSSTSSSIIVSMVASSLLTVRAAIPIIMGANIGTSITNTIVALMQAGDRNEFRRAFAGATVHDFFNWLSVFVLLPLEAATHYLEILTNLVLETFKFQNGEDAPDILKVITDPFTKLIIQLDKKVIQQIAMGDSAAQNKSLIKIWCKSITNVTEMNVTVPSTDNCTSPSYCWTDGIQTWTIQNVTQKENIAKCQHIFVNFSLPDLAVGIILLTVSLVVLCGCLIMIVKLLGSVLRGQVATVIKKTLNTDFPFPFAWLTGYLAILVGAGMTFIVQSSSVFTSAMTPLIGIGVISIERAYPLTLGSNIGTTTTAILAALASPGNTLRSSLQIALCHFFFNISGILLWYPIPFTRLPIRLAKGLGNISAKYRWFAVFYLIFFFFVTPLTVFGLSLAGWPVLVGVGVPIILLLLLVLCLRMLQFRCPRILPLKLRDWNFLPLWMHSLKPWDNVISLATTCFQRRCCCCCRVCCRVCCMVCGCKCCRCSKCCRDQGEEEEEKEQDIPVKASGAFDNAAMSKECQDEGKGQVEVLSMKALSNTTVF
Description: as §2

cynomolgus monkey NaPi2b [10] = target: T5, cynomolgus monkey NaPi2b; assay: flow cytometry, HEK293-6e cells transfected with cynomolgus NaPi2b; apparent Kd
Description: as §2

Binder	binding result [1]	binding result [2]	binding result [3]	NS-ELISA binding score (signal over buffer well) [4]	Bmax [5]	Bmax [6]	Kd [7] [nM]	Bmax (cynomolgus monkey NaPi2b [8])	Kd [9] [nM]	Kd (mouse NaPi2b) [nM]	Kd (cynomolgus monkey NaPi2b [10]) [nM]
v21995 (palivizumab, anti-RSV negative control) (antibody, human IgG1, kappa, V domains shown) VH: QVTLRESGPALVKPTQTLTLTCTFSGFSLSTSGMSVGWIRQPPGKALEWLADIWWDDKKDYNPSLKSRLTISKDTSKNQVVLKVTNMDPADTATYYCARSMITNWYFDVWGAGTTVTVSS VL: DIQMTQSPSTLSASVGDRVTITCKSQLSVGYMHWYQQKPGKAPKLLIYDTSKLASGVPSRFSGSGSGTEFTLTISSLQPDDFATYYCFQGSGYPFTFGGGTKLEIKR	no binding (tested: 200 nM)	no binding (tested: 200 nM)	no binding (tested: 200 nM)								
v29456 (H1L2) (antibody, human IgG1, kappa, Humanized IgG1/kappa; heavy chain ends at G446 (EU); also called humanized antibody variant v29456) heavy: not shown light: DVQMTQSPSSLSASVGDRVTITCRASQDVYSYLNWYQQKPGKAVKLLIYYTSRLQSGVPSRFSGSGSGTDYTLTISSLQPEDFATYYCQQYNIFPWTFGQGTKLEIKRTVAAPSVFIFPPSDEQLKSGTASVVCLLNNFYPREAKVQWKVDNALQSGNSQESVTEQDSKDSTYSLSSTLTLSKADYEKHKVYACEVTHQGLSSPVTKSFNRGEC				1.37	40900	2540	1.1	2010	5.2	10.6	3.2
